Laboratory results reported in paper PMC13495755 (Journal of the American Chemical Society, 2026).
The star is where a group is joined. 5FAM = O=C1OC2(c3ccc(O)cc3Oc3cc(O)ccc32)c2ccc(C(=O)*)cc21; Ahx = NCCCCCC(=O)O

Experiments:
[1] = target: BCL-xL (UniProt Q07817); test: fluorescence polarisation; direct FA titration of the labeled BID peptide with BCL-xL or MCL-1
[2] = target: MCL-1 (UniProt Q07820); test: as above
[3] = target: T1, KLHL20 (303-605); test: fluorescence polarisation; direct titration of the FAM-labelled tracer peptide with the target protein; FA buffer 20 mM Tris, 150 mM NaCl pH 7.4, 1 mM DTT, 0.01% triton x100
T1 sequence (Q9Y2M5 303-605, species assumed, looked up): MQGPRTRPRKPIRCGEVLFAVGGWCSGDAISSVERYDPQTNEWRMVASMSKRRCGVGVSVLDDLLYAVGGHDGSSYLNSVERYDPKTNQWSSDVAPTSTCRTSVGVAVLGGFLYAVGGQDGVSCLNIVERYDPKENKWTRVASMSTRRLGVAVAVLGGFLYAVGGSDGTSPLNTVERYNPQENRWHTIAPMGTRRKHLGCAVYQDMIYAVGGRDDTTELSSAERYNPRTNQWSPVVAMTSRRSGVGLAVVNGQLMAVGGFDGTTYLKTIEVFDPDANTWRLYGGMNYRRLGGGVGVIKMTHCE

[4] = target: T2, MCL-1 (172-327); test: fluorescence polarisation; competitive fluorescence anisotropy; target protein (BCL-xL or MCL-1) fixed at 150 nM, FAM-BID tracer fixed at 25 nM, competitor protein titrated in; FA buffer 20 mM Tris, 150 mM NaCl pH 7.4, 1 mM DTT, 0.01% triton x100 (legends: 20 mM Tris-HCl, 150 mM NaCl, pH 7.5); triplicate; logistic fit; conditions: both partners purified
T2 construct: MCL-1 residues 172-327 as labelled; source: E. coli BL21 DE3, purified (His-trap, SUMO tag removed with His-Ulp1, reverse His-trap, Superdex 75); not shown: His6, N-terminal, cleaved; SUMO, N-terminal, cleaved
T2 chain: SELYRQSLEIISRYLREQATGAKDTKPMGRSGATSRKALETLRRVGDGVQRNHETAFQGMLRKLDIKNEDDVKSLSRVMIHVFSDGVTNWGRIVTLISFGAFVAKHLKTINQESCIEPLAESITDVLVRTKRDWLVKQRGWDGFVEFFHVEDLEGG

[5] = target: T3, BCL-xL (1-26 + 81-198); test: as above; conditions: both partners purified
T3 construct: BCL-xL, first stretch of the loop-deleted construct; BCL-xL, second stretch; Loop between the two stretches deleted; no linker; source: E. coli BL21 DE3, purified (His-trap, SUMO tag removed with His-Ulp1, reverse His-trap, Superdex 75); not shown: His6, N-terminal, cleaved; SUMO, N-terminal, cleaved
T3 chain: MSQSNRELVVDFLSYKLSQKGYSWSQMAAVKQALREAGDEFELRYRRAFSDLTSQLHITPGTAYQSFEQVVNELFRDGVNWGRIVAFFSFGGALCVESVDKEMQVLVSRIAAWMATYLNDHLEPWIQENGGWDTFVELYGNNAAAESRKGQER

[6] = target: T4, Kelch-like protein 20 (KLHL20) (UniProt Q9Y2M5 1-609); test: fluorescence polarisation; direct FA titration of the tracer with KLHL20; conditions: both partners purified
T4 construct: Kelch-like protein 20 (KLHL20), E3 ubiquitin ligase adapter; The functional rows use this molecule for KLHL20 of HEK293 cells; also called E3 ligase adapter
T4 sequence (looked up): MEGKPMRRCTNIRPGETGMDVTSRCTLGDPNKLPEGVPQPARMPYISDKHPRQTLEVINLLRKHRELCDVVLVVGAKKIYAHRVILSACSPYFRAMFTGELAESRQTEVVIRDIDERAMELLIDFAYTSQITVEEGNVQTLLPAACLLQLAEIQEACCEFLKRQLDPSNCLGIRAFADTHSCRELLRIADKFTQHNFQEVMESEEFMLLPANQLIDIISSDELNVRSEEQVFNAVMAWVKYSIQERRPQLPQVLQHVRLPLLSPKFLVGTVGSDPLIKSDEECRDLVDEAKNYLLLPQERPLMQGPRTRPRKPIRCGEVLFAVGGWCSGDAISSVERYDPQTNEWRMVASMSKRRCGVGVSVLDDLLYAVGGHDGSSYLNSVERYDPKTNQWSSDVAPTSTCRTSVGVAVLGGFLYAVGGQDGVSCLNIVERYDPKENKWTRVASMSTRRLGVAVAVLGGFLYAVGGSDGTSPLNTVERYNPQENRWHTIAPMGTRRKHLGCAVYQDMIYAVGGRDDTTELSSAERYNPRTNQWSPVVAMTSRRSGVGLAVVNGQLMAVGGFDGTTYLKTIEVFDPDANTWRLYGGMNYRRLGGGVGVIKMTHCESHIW

MCL-1, sequence (Q07820 whole entry): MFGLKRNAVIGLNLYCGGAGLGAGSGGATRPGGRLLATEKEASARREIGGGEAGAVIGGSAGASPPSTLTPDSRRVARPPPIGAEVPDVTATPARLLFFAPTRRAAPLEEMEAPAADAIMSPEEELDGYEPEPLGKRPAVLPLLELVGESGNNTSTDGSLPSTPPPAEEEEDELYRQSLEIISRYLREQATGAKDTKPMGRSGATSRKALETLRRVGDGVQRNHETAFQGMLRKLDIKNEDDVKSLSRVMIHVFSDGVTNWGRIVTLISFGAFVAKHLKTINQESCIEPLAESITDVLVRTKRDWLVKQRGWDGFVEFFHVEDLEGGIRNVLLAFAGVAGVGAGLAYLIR

“BID, natural effector peptide, labeled competitor peptide” was tested, and the Kd [1] was 71 nM and the Kd [2] was 21.5 nM.

B1: FAM-DAPK1 (peptide)
peptide: {5FAM-Ahx}-LGLPDLVAK-NH2
SMILES: CC(C)C[C@H](NC(=O)CCCCCNC(=O)c1ccc2c(c1)C(=O)OC21c2ccc(O)cc2Oc2cc(O)ccc21)C(=O)NCC(=O)N[C@@H](CC(C)C)C(=O)N1CCC[C@H]1C(=O)N[C@@H](CC(=O)O)C(=O)N[C@@H](CC(C)C)C(=O)N[C@H](C(=O)N[C@@H](C)C(=O)N[C@@H](CCCCN)C(N)=O)C(C)C
B1 showed a Kd [3] of 12200 nM.

B2: Sc-apCC-2-BCL-xL-11 (designed binder)
chain: SHMGPELAALQAERDALEARLAELDREIAALEWRIPSDPRKKQLIGELLRLFGDRFDLERRIAELDAKIEALKNG
notes: de novo helix-loop-helix design against BCL-xL (Strategy 3, pAE); source: E. coli BL21 DE3, purified (His-trap, TEV cleavage, reverse His-trap, Superdex 75); not shown: His6, N-terminal, cleaved
For B2, the IC50 [4] was 500 ± 150 nM and the IC50 [5] was 197 ± 10 nM.

B3: Sc-apCC-2-BCL-xL-12 (designed binder)
chain: SHMGPELERLEERRRELERELEELDREIAELEWTIKSDPRKKELIVKLRQLFGRRLRLMGDIFDLDVQIRRLREG
B3 showed an IC50 [4] of 270 ± 20 nM and an IC50 [5] of 212 ± 18 nM.

B4: tracer of the competitive FA-binding assay for KLHL20 (peptide)
chain: {FAM-Ahx}-LGLPDLVAK-NH2
B4 gave a Kd [6] of 12000 nM.
